Data on one substance can be found in paper PMC2138052.

The target of this test is Rabbit muscle F-actin (rabbit) (UniProt P68135). Put plainly: co-sedimentation.

Substance “Recombinant human cofilin (from UniProt P23528 1-166) (natural protein)” returned a stoichiometry N (cofilin/actin) of 1.16.
